41 sequences from the nanobody polyreactivity screen of Harvey et al. (2022) can be followed below.

This data set can be described thus: yeast display, Sf9 membrane polyspecificity reagent, FACS + sequencing; frameworks hold sequencing errors. The method, boiled down:
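A synthetic nanobody library was expressed on Saccharomyces cerevisiae BJ5465 by galactose induction for 36–48 hours. The library was stained for 1 hour at 4 °C with 10% biotinylated, detergent-solubilized Sf9 membrane reagent and enriched with streptavidin microbeads before FACS. Low and high (top ~1%) gates were set on anti-HA fluorescence for expression and streptavidin fluorescence for reagent binding, and each polyreactivity label reflects the gate of origin.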
In the case of “QVQLVESGGGLVQAGGSLRLSCAASGRTFFDNAMGWYRQAPGKEREFVAAISYNGGSTYFADSVKGRFTISRDNAKNTVYLQMNSLKPEDTAVYYCAADPNYGYDYWGQGTQVTVSS”, the “polyreactivity (PSR sort gate)” value was “low polyreactivity”.

As to “QVQLVESGGGLVQAGGSLRLSCAASGRTFFENAMGWYRQAPGKEREFVAAISYNGGSTYYADSVKGRFTISRDNAKNTVYLQMNSLKTEDTAVYYCAADPNYGYDYWGQGTQVTVSS”, the “polyreactivity (PSR sort gate)” value is recorded as “low polyreactivity”.

In the case of “QVQLVESGGGLVQAGGSLRLSCAASGRTFFFYAMGWYRQAPGKERELVASITWSGGTRTYYADSVKGRFTISRDNAKNTVYLQMNSLKPEDTAFYYCAATDSSYWFNRYGGKYYYWGQGTQVTVSS”, the “polyreactivity (PSR sort gate)” value is “high polyreactivity”.

In the case of “QVQLVESGGGLVQAGGSLRLSCAASGRTFFGNAKGWYRQAPGKERELVASISTRGGSTYYADSVKGRFTISRDNAKNTVYLQMNSLKPEDTAVYYCAKRGRDRRIYGYWGQGTQVTVSS”, the “polyreactivity (PSR sort gate)” value is on record as “high polyreactivity”.

As for “QVQLVESGGGLVQAGGSLRLSCAASGRTFFGYTMGWYRHAPGKERELVAVISKRGGRTYYADSVKGRFTISRDNAKNTVYLQMNSLKPEDTAVYYCNRVKDSNVSQAMEYWGQGTQVTVSS”, the “polyreactivity (PSR sort gate)” value is “high polyreactivity”.

Turning to “QVQLVESGGGLVQAGGSLRLSCAASGRTFFINAMGWYRPAPGKERELVAAIRVGAGSTYYADSVKGRVTISRDNAKYTVYLQMNSLKPEDTAVYYCAKRTATSTRKYDYWGQGTQVTVSS”, the “polyreactivity (PSR sort gate)” value is recorded as “high polyreactivity”.

Turning to “QVQLVESGGGLVQAGGSLRLSCAASGRTFFINTMGWYRQAPGKERELVAAITWSGGSTYYADSVKGRFTISRDNAKNTVYLQMNSLKPEDTAVYYCAAVYVYRPDIIYVEVAYDYWGQGTQVTVSS”, the “polyreactivity (PSR sort gate)” value is “low polyreactivity”.

Consider “QVQLVESGGGLVQAGGSLRLSCAASGRTFFIYAMGWYRQAPGKERELVAAITRGGTNYADSVKGRFTISRDNAKNTVYLQMNSLKPEDTAVYYCYTYTYAGYNYWGQGTQVTVSS”, for which the “polyreactivity (PSR sort gate)” value is on record as “high polyreactivity”.

With “QVQLVESGGGLVQAGGSLRLSCAASGRTFFPYGMGWYRQAPGKERELVATISWSGGSTHYADSVKGRFTISRDNAKNTVYLQMNSLKPEDTAVYYCAAGNSLYWYNSGNYWGQGTQVTVSS”, the “polyreactivity (PSR sort gate)” value is “low polyreactivity”.

Turning to “QVQLVESGGGLVQAGGSLRLSCAASGRTFFPYVMGWYRQAPGKERELVAAISNSGTSTYYADSVKGRFTISRDNAKNTVYLQMNSLKPEDTAVYYCAARRYVGLYYWGQGTQVTVSS”, the “polyreactivity (PSR sort gate)” value was “high polyreactivity”.

Regarding “QVQLVESGGGLVQAGGSLRLSCAASGRTFFRNAMGWYRQAPGKERELVAAISKRGGSTYYADSVKGRFTISRDNAKNTVYLQMNSLKPEDTAVYYCNADPRTVGLDYWGQGTQVTVSS”, the “polyreactivity (PSR sort gate)” value was “high polyreactivity”.

“QVQLVESGGGLVQAGGSLRLSCAASGRTFFSYVMGWYRPAPGKEREFVAAISRSGGNTYYADSVMGRFTISRDNAKNTVYLQMNSLKPEETAVYYCNKPQRILYDYWGHGTQVTVSS”: the “polyreactivity (PSR sort gate)” value is listed as “high polyreactivity”.

For “QVQLVESGGGLVQAGGSLRLSCAASGRTFFVNTMGWSRQAPGKERELVAAISDSGGSTYADSVKGRFTISRDNAKNTVNLQKNSLKPEDTAVYYCAARRRYPQRFGFDYWGQGTQVTVSS”, the “polyreactivity (PSR sort gate)” value is recorded as “low polyreactivity”.

With “QVQLVESGGGLVQAGGSLRLSCAASGRTFFVYAMGWYRQAPGKERELVASITLSGGSTYYADSVKGRFTISRDNAKNTVYLQMHSLKPEDTAVYYCAKGWSRDNDREREDEYWGQGTQVTVSS”, the “polyreactivity (PSR sort gate)” value is “low polyreactivity”.

Consider “QVQLVESGGGLVQAGGSLRLSCAASGRTFFVYAMGWYRQAPGKVRELVAAISNTGGRTYYADSVKGRFTISRDNAKNTVYLQMNSLKPEDTAVYYCAAPYSGPYRSYEYYWGQGTQVTVSS”, for which the “polyreactivity (PSR sort gate)” value is given as “low polyreactivity”.

As to “QVQLVESGGGLVQAGGSLRLSCAASGRTFFWYAMGWYRQAPGKERELVAAITYRGGGTYYADSVKGRFTISRDNAKNTVYLQMNSLKPEDTAVYYCAAEYWVGVYLYDYWGQGTQVTVSS”, the “polyreactivity (PSR sort gate)” value is “high polyreactivity”.

As for “QVQLVESGGGLVQAGGSLRLSCAASGRTFFYNAMAWYRQAPGKERESTYYADSVKGRFTISRDNAKNTVYLQMNSLIPEDTAVSYCAAGTAYVAYEGDKGDYCGQGTQVTVSS”, the “polyreactivity (PSR sort gate)” value is “low polyreactivity”.

“QVQLVESGGGLVQAGGSLRLSCAASGRTFFYNAMGWYRQAPGKERELVAAISGRGGRTYYADSVKGRFTISRDNAKNTVHLQMNSLKPEDTAVYYCAADAGPLRYDYWGQGTQVTVSS”: the “polyreactivity (PSR sort gate)” value is on record as “high polyreactivity”.

For “QVQLVESGGGLVQAGGSLRLSCAASGRTFFYNAMGWYRQAPGKERELVAAISSGGGSTYYADSVKGRFTISRDNAKNTVYLQMNSLKPEDTAVYYCNAYKGQTGGGGRYGYWGQGTQVTVSS”, the “polyreactivity (PSR sort gate)” value was “high polyreactivity”.

In the case of “QVQLVESGGGLVQAGGSLRLSCAASGRTFFYYAMGWYRQAPGKERELVAAISGRGGRTYYADSVKGRFTISRDNAKNTVYLQMNSLKPEDTAVYYCNTRGTRIASGHYYWGQGTQVTVSS”, the “polyreactivity (PSR sort gate)” value is listed as “high polyreactivity”.

Consider “QVQLVESGGGLVQAGGSLRLSCAASGRTFGANAMGWYRQAPGKERELVAAISSSDDSTYYADSVKGRFTISRDNAKNTVYLQMNSLKPEDTAVYYCAAEDVYPQLDYWGQGTLVTVSS”, for which the “polyreactivity (PSR sort gate)” value is “low polyreactivity”.

As to “QVQLVESGGGLVQAGGSLRLSCAASGRTFGAYSMGWYRQAPGKERELVASISRSGGSTYYADSVKGRFTISRDNAKNTVYLQMNSLKPEETAVYYCAARVYRYGAMDYWGQGTQVTVSS”, the “polyreactivity (PSR sort gate)” value is listed as “high polyreactivity”.

Turning to “QVQLVESGGGLVQAGGSLRLSCAASGRTFGAYTMGWYRQAPGKERELVAAINWSGGDTYYADSVKGRFTISRDNAKNTVYLQMNSLKPEDTAVYYCNAEPRYGTYDYWGQGTQVTVSS”, the “polyreactivity (PSR sort gate)” value is given as “low polyreactivity”.

Turning to “QVQLVESGGGLVQAGGSLRLSCAASGRTFGDYAMGWSRQAPGKERELVAAIDVDGGSTYYADSVKGRFTISRDNAKNTVYLQMNSLKPEDTAVYYCNAQAPYWFSFYSDHKYDYWGQGTQVTVSS”, the “polyreactivity (PSR sort gate)” value is recorded as “low polyreactivity”.

As to “QVQLVESGGGLVQAGGSLRLSCAASGRTFGDYAMGWYRQAPGKERELVAAISKSGGITYYADSVKGRFTISRDNAKNTVYLQMNSLKPEDTAVYYCNADGSPFYYSGYDYWGQGTQVTVSS”, the “polyreactivity (PSR sort gate)” value was “high polyreactivity”.

For the sequence “QVQLVESGGGLVQAGGSLRLSCAASGRTFGDYAMGWYRQEPGKERELVAGITGRDSTNYADSVKGRFTISRDNAKNTVYLQMNSLIREDTAVYYCNADFWYTDISYGLATYDYWGQGTQVTVSS”, the “polyreactivity (PSR sort gate)” value is listed as “high polyreactivity”.

Take “QVQLVESGGGLVQAGGSLRLSCAASGRTFGGYAMGRYRQAPGKDRQLVASISWSGGSTYYADSVKGRFTISRDNAKNTVYLQMNSLKPEDTAVYYCAARPYLSRSTRMDYWGQGTQVTVSS”: the “polyreactivity (PSR sort gate)” value is reported as “low polyreactivity”.

In the case of “QVQLVESGGGLVQAGGSLRLSCAASGRTFGGYAMGWYRQAPGKERELVAAIRRSGGSTYYADSVKGRFTISRDNAKNTVYLQMNSLKPEDTAVYYCNVLRFSTGGYRYVYDYDYWGQGTQVTVSS”, the “polyreactivity (PSR sort gate)” value is “high polyreactivity”.

For “QVQLVESGGGLVQAGGSLRLSCAASGRTFGGYAMGWYRQAPGTERELVAAIRSRGGRTYYADSVKGRFTISRDNAKKSVYLQMNSLKPEDTAVYYCATYGNKWGEDYWGQGTQVTVSS”, the “polyreactivity (PSR sort gate)” value is reported as “high polyreactivity”.

With “QVQLVESGGGLVQAGGSLRLSCAASGRTFGGYTMGWYRKAPGKERELVAAISKRGGSTYYADSVKGRFTISRDNAKNTVYLQMNSLKPEDTAVYYCARDVRTVIVSTGYDYWGQGTQVTVSS”, the “polyreactivity (PSR sort gate)” value is reported as “high polyreactivity”.

“QVQLVESGGGLVQAGGSLRLSCAASGRTFGGYTMGWYRQAPGKERALVAAIRWSGGRTYYADSVKGRFTISRDNAKNTVYLQMNSLKPEDTAVYYCNARYVFPYYWGQGTQVTVSS”: the “polyreactivity (PSR sort gate)” value was “high polyreactivity”.

As to “QVQLVESGGGLVQAGGSLRLSCAASGRTFGGYTMGWYRQAPGKERELVAAITGSGSNTYYADSVKGRFTISRDNAKNTVYLQMNSLKPEDTAVYYCAAPYSYRTWYPYGYWGQGTQVTVSS”, the “polyreactivity (PSR sort gate)” value is given as “high polyreactivity”.

As to “QVQLVESGGGLVQAGGSLRLSCAASGRTFGIYAMGWYRQAPGKERELVASISWSGGRTYYADSVKGRFTLSRDNAKNTVYLQMNSLKPEDTAVYYCAAYGVYYPRSWQYFDWYGYWGQGTQVTVSS”, the “polyreactivity (PSR sort gate)” value was “high polyreactivity”.

With “QVQLVESGGGLVQAGGSLRLSCAASGRTFGIYAMGWYRQAPGTERQMVADITSGGDTYYADSVKGRFTISRDNAKNTVYLQMNSLKPEDTAVYYCAADIYPDWIYLLYGYWGQGTQVNVSS”, the “polyreactivity (PSR sort gate)” value is “low polyreactivity”.

“QVQLVESGGGLVQAGGSLRLSCAASGRTFGIYTMGWYRQAPGKERKLVAAISKRGSSTYYADSVKGRFTISRDNAKNTVYLQMNSLKPEDTAVYYCNARSWYIRGSQEYYYWGQGTQVTVSS”: the “polyreactivity (PSR sort gate)” value is “high polyreactivity”.

Take “QVQLVESGGGLVQAGGSLRLSCAASGRTFGKNAMGWYRPAPGKERELVAAIRYRTGSTYYADSVKGRFTISRDNAKNTVYLQMNSLKPEDTAVYYCAKVGSSPLYWGQGTHVTVSS”: the “polyreactivity (PSR sort gate)” value is recorded as “high polyreactivity”.

With “QVQLVESGGGLVQAGGSLRLSCAASGRTFGKNAMGWYRQAPGKERELVAAISWSGGRTYYADSVKGRFTISRDNAKNTVYLQMNSLKPEDTAVYYCATASYRNPSDYWGQGTQVTVSS”, the “polyreactivity (PSR sort gate)” value is “high polyreactivity”.

On to “QVQLVESGGGLVQAGGSLRLSCAASGRTFGKYAMGWYRQAPGKERELVAGISSRGGSTYYADSVKGRFTISRDNAKNTVYLQMNSLKPEDTAVYYCAKRPLTSNASQGDYWGQGTQVTVSS”, for which the “polyreactivity (PSR sort gate)” value is recorded as “high polyreactivity”.

Regarding “QVQLVESGGGLVQAGGSLRLSCAASGRTFGKYAMGWYRQAPGKERELVATISLSGGSTYYADSVKGRFTISRDNAKNTVYLQMNSLKPEDTAVYYCAARVYTYYYDLHKRYYWGQGTQVTVSS”, the “polyreactivity (PSR sort gate)” value is “high polyreactivity”.

As for “QVQLVESGGGLVQAGGSLRLSCAASGRTFGLNAMGWYRQAPGKDRELVAAISSSGGSTYYADSVKGRFTISRDNAKNTVYLQKNSLKPEDTAVYYCAKGLYRYGTAYYYWGQGTQVTVSS”, the “polyreactivity (PSR sort gate)” value is “high polyreactivity”.

In the case of “QVQLVESGGGLVQAGGSLRLSCAASGRTFGLNAMGWYRQAPGKERELVAAIDWRGVNTYYADSVKGRFTISRDNAKNTVYLQMNSLKPEDTAVYYCNARAYGRYYWGQGTQVTVSS”, the “polyreactivity (PSR sort gate)” value is listed as “high polyreactivity”.
